Reference: PMC4755594, “Structure of a Bacterial Virus DNA-Injection Protein Complex Reveals a Decameric Assembly with a Constricted Molecular Channel” (PLoS ONE, 2016)

Target: the molecule itself
Test: SEC; refolded gp12 after Ni-NTA on Hiload Superdex 200; decamer peak at 54.6 ml, monomer peak at 73.6 ml; pooled decamer fractions run again

B1: bacteriophage Sf6 DNA-injection protein gp12 (natural protein, UniProt Q716G3 1-431, looked up)
chain: MATWQGSNGGLLAGIGGVNSNAPSVNDIGNTLQLIRQNNDIERSGANNVGLTALQGLSGIAGVFQQEKQARRQKEFQQAYANAYASGDRGALRQLATQYPDQIESVRKGMGFIDEDQRNSIGTLAAGARLAASSPEAMQSWLQNNANELARVGVDPNNVAQMYQQNPSGFGEFVDHLGMAALGPIDYFNVQDKMAGREIDRGRLAETIRSNKAGEALTVRGQDIQIRGQNISAQNAALSREIQRAELQEKALDRQIARESNQLKLEELKQKQADVRQKADIARADRQAAAQGAVDTFSTALDSLNEIEQSPGLSKAVGIRSAFPTVPGSDAANFEARLDTFKAQTFLPMVQSLKGMGALSDAEGKKLSDAVGALSPKMSEKAFRDSIGKIRNQLESKLSTVKKQFDYQEPVQNTPVQQPTTGSNFSSLWGD
notes: gp12 (product of gene 12) of bacteriophage Sf6, 431 residues, 46.5 kDa; ortholog of phage P22 gp20; The same preparation gave a monomer peak and a decamer peak on SEC; the assembled form has 10 copies of the chain; also called Sf6 gp12; gp12 monomer
  stoichiometry N: 10
